Measurements reported in paper PMC4932183, “Structure and activation of pro-activin A” (Nature Communications, 2016).

T1: cleaved pro-activin A complex (pro-mature complex) (human, UniProt P08476 311-426)
T1 sequence (P08476 whole entry, looked up): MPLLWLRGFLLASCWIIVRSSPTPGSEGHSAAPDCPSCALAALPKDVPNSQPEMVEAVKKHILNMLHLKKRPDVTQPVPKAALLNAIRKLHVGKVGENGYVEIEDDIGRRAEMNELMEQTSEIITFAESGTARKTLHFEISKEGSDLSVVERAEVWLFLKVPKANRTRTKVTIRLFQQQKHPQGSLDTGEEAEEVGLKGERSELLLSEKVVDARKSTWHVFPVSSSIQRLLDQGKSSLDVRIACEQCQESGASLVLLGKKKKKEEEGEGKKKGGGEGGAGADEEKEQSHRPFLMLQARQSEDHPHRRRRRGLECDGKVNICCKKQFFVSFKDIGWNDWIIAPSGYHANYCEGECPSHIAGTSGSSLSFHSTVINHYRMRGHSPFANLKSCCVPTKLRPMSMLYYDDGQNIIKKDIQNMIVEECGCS

B1: mature activin A (disulfide-linked dimer of the mature domain of inhibin βA) (ligand, human, UniProt P08476 311-426, looked up)
chain: GLECDGKVNICCKKQFFVSFKDIGWNDWIIAPSGYHANYCEGECPSHIAGTSGSSLSFHSTVINHYRMRGHSPFANLKSCCVPTKLRPMSMLYYDDGQNIIKKDIQNMIVEECGCS
notes: human inhibin βA chain (Uniprot P08476), mature domain, up to residue 426; residues marked m (Asp27m) count on the mature domain. numbers count on: the mature protein; Residues of the HRV 3C site could be left at the N-terminus of the complex-derived form; also called mature dimer; control activin A
B2: follistatin-288 (natural protein, UniProt P19883-2 30-317, looked up)
chain: GNCWLRQAKNGRCQVLYKTELSKEECCSTGRLSTSWTEEDVNDNTLFKWMIFNGGAPNCIPCKETCENVDCGPGKKCRMNKKNKPRCVCAPDCSNITWKGPVCGLDGKTYRNECALLKARCKEQPELEVQYQGRCKKTCRDVFCPGSSTCVVDQTNNAYCVTCNRICPEPASSEQYLCGNDGVTYSSACHLRKATCLLGRSIGLAYEGKCIKAKSCEDIQCTGGKKCLWDFKVGRGRCSLCDELCPDSKSDEPVCASDNATYASECAMKEAACSSGVLLEVKHSGSCN

How the values were obtained:
[1] = biological target: T2, Avi-tagged follistatin-288, biotinylated (UniProt P19883-2 30-317, biotin (on the Avi tag, by BirA)); assay: BLI; biotinylated Avi-tagged FST-288 immobilised on streptavidin biosensors; analytes in kinetic buffer (PBS, 0.1% bovine serum albumin, 0.02% Tween-20); 600 s association, 600 s dissociation; 30 °C; conditions: both partners purified
T2 construct: source: biotinylated with BirA enzyme, purified by reverse phase chromatography

[2] = biological target: B1; assay: cell-based or functional assay
[3] = biological target: T1, cleaved pro-activin A complex …; assay: cell-based or functional assay

Row | Binder | Kd [1] [pM] | IC50 of FST-288 for inhibition of signalling by 60 pM mature activin A; activin-inducible luciferase reporter in HEK293T cells [2] [pM] | IC50 of FST-288 for inhibition of signalling by 60 pM pro-activin A complex; activin-inducible luciferase reporter in HEK293T cells [3] [pM]
1 | B1 | 209 | – | –
2 | B2 | – | 81 | 90
